Source: paper PMC3576620, “Endocytosis of somatodendritic NCKX2 is regulated by Src family kinase-dependent tyrosine phosphorylation” (Frontiers in Cellular Neuroscience, 2013)

What was measured:
Assay in all cases: co-IP; HEK293 cells co-transfected with HA-AP2M1 and myc-NCKX2-loop variants; lysate (50 mM Tris-Cl pH 7.4, 150 mM NaCl, 1 mM EDTA, 0.5% Triton X-100) incubated with anti-c-myc agarose overnight at 4°C; eluted with c-myc peptide; anti-HA blot, densitometry, n = 5
Details in all cases: partners not purified
[1] = target: T1, c-myc-tagged cytoplasmic loop of NCKX2 (myc-NCKX2-loop), wild type (rat, UniProt O54701-1 288-478)
T1 construct: K+-dependent Na+/Ca2+ exchanger 2 (NCKX2), rat (NM_031743.2; O54701), cytoplasmic loop region, amino acids 288-478, in pcDNA3.1(+); also called WT; source: HEK293, transfected (calcium phosphate), in lysate; not shown: c-myc, N-terminal, kept
T1 sequence (looked up): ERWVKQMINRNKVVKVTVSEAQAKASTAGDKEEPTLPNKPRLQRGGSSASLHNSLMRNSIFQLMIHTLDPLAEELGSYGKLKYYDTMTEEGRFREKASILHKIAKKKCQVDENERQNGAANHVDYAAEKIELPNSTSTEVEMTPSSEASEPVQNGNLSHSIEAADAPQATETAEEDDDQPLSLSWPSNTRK

[2] = target: T2, c-myc-tagged cytoplasmic loop of NCKX2, Y371A mutant (rat, UniProt O54701-1 288-478, Y371A)
T2 construct: K+-dependent Na+/Ca2+ exchanger 2 (NCKX2), rat (NM_031743.2; O54701), cytoplasmic loop region, amino acids 288-478, with Y371A; also called myc-NCKX2-loop Y371A; source: HEK293, transfected (calcium phosphate), in lysate; not shown: c-myc, N-terminal, kept
T2 sequence (looked up): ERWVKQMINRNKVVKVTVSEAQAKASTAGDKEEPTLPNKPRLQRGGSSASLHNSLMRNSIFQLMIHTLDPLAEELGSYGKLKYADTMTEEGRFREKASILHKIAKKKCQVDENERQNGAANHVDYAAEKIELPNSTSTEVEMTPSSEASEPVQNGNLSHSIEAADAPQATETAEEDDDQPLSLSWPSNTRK

[3] = target: T3, c-myc-tagged cytoplasmic loop of NCKX2, phosphomimetic mutant Y365E (rat, UniProt O54701-1 288-478, Y365E)
T3 construct: K+-dependent Na+/Ca2+ exchanger 2 (NCKX2), rat (NM_031743.2; O54701), cytoplasmic loop region, amino acids 288-478, with Y365E; also called myc-NCKX2-loop Y365E; source: HEK293, transfected (calcium phosphate), in lysate; not shown: c-myc, N-terminal, kept
T3 sequence (looked up): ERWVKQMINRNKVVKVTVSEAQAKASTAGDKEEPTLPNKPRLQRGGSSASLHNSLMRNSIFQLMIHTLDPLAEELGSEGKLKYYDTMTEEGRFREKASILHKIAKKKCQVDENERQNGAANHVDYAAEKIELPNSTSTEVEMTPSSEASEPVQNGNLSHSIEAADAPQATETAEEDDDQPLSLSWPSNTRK

- amount of coimmunoprecipitated HA-AP2M1 [1]: 36.9
- amount of coimmunoprecipitated HA-AP2M1 [2]: 41.6
- amount of coimmunoprecipitated HA-AP2M1 [3]: 7.83
B1: HA-tagged AP2M1 (μ subunit of adaptor protein complex 2) (natural protein, UniProt P84092 1-435, looked up)
chain: MIGGLFIYNHKGEVLISRVYRDDIGRNAVDAFRVNVIHARQQVRSPVTNIARTSFFHVKRSNIWLAAVTKQNVNAAMVFEFLYKMCDVMAAYFGKISEENIKNNFVLIYELLDEILDFGYPQNSETGALKTFITQQGIKSQHQTKEEQSQITSQVTGQIGWRREGIKYRRNELFLDVLESVNLLMSPQGQVLSAHVSGRVVMKSYLSGMPECKFGMNDKIVIEKQGKGTADETSKSGKQSIAIDDCTFHQCVRLSKFDSERSISFIPPDGEFELMRYRTTKDIILPFRVIPLVREVGRTKLEVKVVIKSNFKPSLLAQKIEVRIPTPLNTSGVQVICMKGKAKYKASENAIVWKIKRMAGMKESQISAEIELLPTNDKKKWARPPISMNFEVPFAPSGLKVRYLKVFEPKLNYSDHDVIKWVRYIGRSGIYETRC
notes: AP2M1, μ subunit of adaptor protein complex 2 (NM_053837.1; P84092), cloned into pcDNA3; gift from Dr. Ryan (Kim and Ryan, 2009); also called HA-AP2M1; μ subunit of AP-2; source: HEK293, transfected (calcium phosphate), in lysate
